This is an account of results in patent US20230303660A1 (published 2023).

B1: murine (m)s4-1BBL-TriXVIII (ligand)
chain: GVRLWATRQAMLGQVHEVPEGWLIFVAEQEELYVRVQNGFRKVQLEARTPLPRGTDNEGSRTEPRPALTITTSPNLGTRENNADQVTPVSHIGCPNTTQQGSPVFAKLLAKNQASLCNTTLNWHSQDGAGSSYLSQGLRYEEDKKELVVDSPGLYYVFLELKLSPTFTNTGHKVQGWVSLVLQAKPQVDDFDNLALTVELFPCSMENKLVDRSWSQLLLLKAGHRLSVGLRAYLHGAQDAYRDWELSYPNTTSFGLFLVKPDNPWE
B2: s4-1BBL-TriXVIII^LL (ligand)
chain: GSGSNWSHPQFEKGGSGGHHHHHHGGSGGTRSGAGGSGGSSGSDGASGSGVRLWATRQAMLGQVHEVPEGWLIFVAEQEELYVRVQNGFRKVQLEARTPLPRGTDNEGSLDLRQGMFAQLVAQNVLLIDGPLSWYSDPGLAGVSLTGGLSYKEDTKELVVAKAGVYYVFFQLELRRVVAGEGSGSVSLALHLQPLRSAAGAAALALTVDLPPASSEARNSAFGFQGRLLHLSAGQRLGVHLHTEARARHAWQLTQGATVLGLFRVTPEIPAGLPSPRSE
B3: s4-1BBL (ligand)
chain: GSGSNWSHPQFEKGGSGGHHHHHHGGSGGGSLDLRQGMFAQLVAQNVLLIDGPLSWYSDPGLAGVSLTGGLSYKEDTKELVVAKAGVYYVFFQLELRRVVAGEGSGSVSLALHLQPLRSAAGAAALALTVDLPPASSEARNSAFGFQGRLLHLSAGQRLGVHLHTEARARHAWQLTQGATVLGLFRVTPEIPAGLPSPRSE
notes: HEK293T supernatant; also called soluble 4-1BBL
B4: s4-1BBL-TNC (ligand)
chain: GSGSNWSHPQFEKGGSGGHHHHHHGGSGGTRACGCAAAPDIKDLLSRLEELEGLVSSLREQGSLDLRQGMFAQLVAQNVLLIDGPLSWYSDPGLAGVSLTGGLSYKEDTKELVVAKAGVYYVFFQLELRRVVAGEGSGSVSLALHLQPLRSAAGAAALALTVDLPPASSEARNSAFGFQGRLLHLSAGQRLGVHLHTEARARHAWQLTQGATVLGLFRVTPEIPAGLPSPRSE
notes: HEK293T supernatant; The entry may include the CD5 leader; also called comparison 3
B5: s4-1BBL-TriXVIII (ligand)
chain: GSGSNWSHPQFEKGGSGGHHHHHHGGSGGGVRLWATRQAMLGQVHEVPEGWLIFVAEQEELYVRVQNGFRKVQLEARTPLPRGTDNEGSLDLRQGMFAQLVAQNVLLIDGPLSWYSDPGLAGVSLTGGLSYKEDTKELVVAKAGVYYVFFQLELRRVVAGEGSGSVSLALHLQPLRSAAGAAALALTVDLPPASSEARNSAFGFQGRLLHLSAGQRLGVHLHTEARARHAWQLTQGATVLGLFRVTPEIPAGLPSPRSE
notes: HEK293T supernatant; The entry may include the CD5 leader; also called 54-1BBL-TriXVIII; human s4-1BBL-TriXVIII
B6: Triple-s4-1BBL (ligand)
chain: GSGSNWSHPQFEKGGSGGHHHHHHGGSGGGSLDLRQGMFAQLVAQNVLLIDGPLSWYSDPGLAGVSLTGGLSYKEDTKELVVAKAGVYYVFFQLELRRVVAGEGSGSVSLALHLQPLRSAAGAAALALTVDLPPASSEARNSAFGFQGRLLHLSAGQRLGVHLHTEARARHAWQLTQGATVLGLFRVTPEIPAGLPSPRSEGGGGSGGGGSGGGGSLDLRQGMFAQLVAQNVLLIDGPLSWYSDPGLAGVSLTGGLSYKEDTKELVVAKAGVYYVFFQLELRRVVAGEGSGSVSLALHLQPLRSAAGAAALALTVDLPPASSEARNSAFGFQGRLLHLSAGQRLGVHLHTEARARHAWQLTQGATVLGLFRVTPEIPAGLPSPRSEGGGGSGGGGSGGGGSLDLRQGMFAQLVAQNVLLIDGPLSWYSDPGLAGVSLTGGLSYKEDTKELVVAKAGVYYVFFQLELRRVVAGEGSGSVSLALHLQPLRSAAGAAALALTVDLPPASSEARNSAFGFQGRLLHLSAGQRLGVHLHTEARARHAWQLTQGATVLGLFRVTPEIPAGLPSPRSE
notes: HEK293T supernatant; Single chain carrying three ectodomains; The entry may include the leader
B7: s4-1BBLsh-TriXVIII (ligand)
chain: GSGSNWSHPQFEKGGSGGHHHHHHGGSGGGVRLWATRQAMLGQVHEVPEGWLIFVAEQEELYVRVQNGFRKVQLEARTPLPRGTDNEGSGMFAQLVAQNVLLIDGPLSWYSDPGLAGVSLTGGLSYKEDTKELVVAKAGVYYVFFQLELRRVVAGEGSGSVSLALHLQPLRSAAGAAALALTVDLPPASSEARNSAFGFQGRLLHLSAGQRLGVHLHTEARARHAWQLTQGATVLGLFRVTP
notes: HEK293T supernatant, used without purification; The entry may include the CD5 leader; also called 54-1BBLsh-TriXVIII; s4-1BBL-short (sh) minimal polypeptide

Several values for one entry are separate records, joined by “and”; a condition that tells them apart may be missing. Identical values can stand only once.

murine 4-1BB, sequence (P20334 24-256): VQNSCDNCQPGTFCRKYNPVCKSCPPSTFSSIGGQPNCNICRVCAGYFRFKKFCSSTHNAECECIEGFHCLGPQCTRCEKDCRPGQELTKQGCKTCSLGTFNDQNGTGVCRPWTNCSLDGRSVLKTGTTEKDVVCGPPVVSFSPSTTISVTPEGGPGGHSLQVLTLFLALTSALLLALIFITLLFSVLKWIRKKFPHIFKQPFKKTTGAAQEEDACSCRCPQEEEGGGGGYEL

The first assay addresses murine 4-1BB (murine, UniProt P20334 24-256). In words: cell-based or functional assay.
Turning to B1, the “NF-κB activation measured through eCFP expression (fold induction)” value (shortened to “NF-κB activation … (fold induction)”) was 15600 final supernatant dilution (1:x) and 500 supernatant dilution (1/x).

The target in another assay is T1, human 4-1BB (human, UniProt Q07011 24-255). The assay can be described thus: cell-based or functional assay.
T1 sequence (Q07011 24-255): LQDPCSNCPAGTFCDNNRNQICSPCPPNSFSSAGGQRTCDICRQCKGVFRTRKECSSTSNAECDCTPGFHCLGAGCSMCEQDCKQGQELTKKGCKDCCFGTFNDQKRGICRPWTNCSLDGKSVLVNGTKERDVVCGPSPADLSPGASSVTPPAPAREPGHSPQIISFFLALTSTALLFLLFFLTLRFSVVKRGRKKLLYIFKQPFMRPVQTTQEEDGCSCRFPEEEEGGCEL
Regarding B2, the “NF-κB activation … (fold induction)” value is 64 final supernatant dilution (1:x) and 8 supernatant dilution (1:x).
Still for that read-out and setting: for B3 the value was 8 final supernatant dilution (1:x).
Regarding B4, the “NF-κB activation … (fold induction)” value was ~50 % of effect lost at a dilution of 1:8.

The next assay concerns the target T1, human 4-1BB. The assay can be described thus: flow cytometry; dilution series of HEK293T supernatant on Jurkat TPR cells expressing human 4-1BB. The text has this: For testing the resulting supernatants, a Triple parameter reporter cell line (TPR) based on the human Jurkat JE6-1 T cell line was used (Jutz et al., 2016). This cell line harbors fluorescent reporter polypeptides to concomitantly assess the activity of three transcription factors, which play major roles during T cell activation: NF-κB::eCFP; NFAT::eGFP and AP-1::mCherry. The TPR reporter cells were transduced to stably express human 4-1BB. For the binding assays, 1×10⁵ 4-1 BB expressing cells in a volume of 10 μl were incubated with 50 μl of the supernatants containing the products according to Table 1. […] After an incubation time of 30 min at 4° C., the samples are washed in FACS-Buffer (1×PBS, 0.5% FCS, 0.005% NaN₃) and stained with a biotinylated Strep-tag II mAb (GenScript, NJ) via adding 5 μl of a 1:150 dilution to each sample and incubation for 20 min on 4° C. Afterwards, samples were washed again and incubated for another 20 min on 4° C. upon adding 5 μl of a 1:200 dilution of Streptavidin-PE (BD Pharmingen, San Diego, CA) to each sample. At last, samples were washed again and subsequently measured via flow cytometry, which was performed on a FACSCalibur flow cytometer (Becton Dickinson Immunocytometry System, San Jose, CA), using the CellQuest software. Data was analyzed with FlowJo (version 10.0.7, Tree Star, Ashland, OR) and Graphpad Prism (version 6, GraphPad Software, Inc., La Jolla, CA).
(A flow cytometer gives signals particle by particle.)
B5: the “supernatant dilution at which binding is still detectable” value (shortened to “supernatant dilution”) is 4096 supernatant dilution (1:x).
In the case of B6, the “supernatant dilution” value is 4096 supernatant dilution (1:x).
With B3, the “supernatant dilution” value was 1600 supernatant dilution (1:x).
The same measure, in the same setting: to B4 belongs 128 supernatant dilution (1:x); to B7, 2080 supernatant dilution (1:x).
